Test results reported in paper PMC12273567 (The Journal of Biological Chemistry, 2025).

Biological target: T1, recombinant His-tagged NRF2, full length (UniProt Q16236 1-605)
T1 sequence: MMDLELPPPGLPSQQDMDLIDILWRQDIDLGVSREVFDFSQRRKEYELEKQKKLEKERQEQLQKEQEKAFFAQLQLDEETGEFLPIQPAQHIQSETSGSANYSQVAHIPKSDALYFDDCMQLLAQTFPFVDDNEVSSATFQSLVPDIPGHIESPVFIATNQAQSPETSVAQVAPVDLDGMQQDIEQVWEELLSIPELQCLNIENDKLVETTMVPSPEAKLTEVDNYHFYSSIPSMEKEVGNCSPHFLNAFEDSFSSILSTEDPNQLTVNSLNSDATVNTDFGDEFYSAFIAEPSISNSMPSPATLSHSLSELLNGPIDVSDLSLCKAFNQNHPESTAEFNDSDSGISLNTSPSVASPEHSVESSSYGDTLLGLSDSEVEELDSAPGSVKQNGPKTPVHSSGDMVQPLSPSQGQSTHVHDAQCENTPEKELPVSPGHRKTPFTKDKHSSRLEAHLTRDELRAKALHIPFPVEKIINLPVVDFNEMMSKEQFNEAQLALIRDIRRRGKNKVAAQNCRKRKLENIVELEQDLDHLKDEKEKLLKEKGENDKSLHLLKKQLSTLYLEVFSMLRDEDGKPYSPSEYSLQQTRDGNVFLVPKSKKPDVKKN
Assay: MST

Kd: 859 ± 70.1 nM
B1: recombinant αB-crystallin (natural protein)
chain: MDIAIHHPWIRRPFFPFHSPSRLFDQFFGEHLLESDLFPTSTSLSPFYLRPPSFLRAPSWFDTGLSEMRLEKDRFSVNLDVKHFSPEELKVKVLGDVIEVHGKHEERQDEHGFISREFHRKYRIPADVDPLTITSSLSSDGVLTVNGPRKQVSGPERTIPITREEKPAVTAAPKK
